Laboratory results taken from patent US20250289893A1 (OXFORD UNIVERSITY INNOVATION, published 2025).

Assays:
[1] = biological target: T1, human CD1a expressed on cells (human, UniProt P06126 17-327; P61769 21-119); test: flow cytometry, MOLT4 cells, 0.316 µg/ml antibody
T1 construct: also called HEK - CD1a; C1R - CD1a
Method: (§1) CD1a-specific antibodies were identified by flow cytometry. Binding to proteins expressed on HEK, C1R and MOLT4 cell lines was assessed. […] The C1R-CD1a, C1R-empty vector and MOLT4 cell lines were washed in 1×PBS on the day required. All cell lines were counted and resuspended in 1×PBS and then stained for 30 minutes at 37° C. using the DiI or DiO cellular stains (Invitrogen). Cells were washed with flow cytometry buffer (1% bovine serum albumin, 2 mM EDTA and 0.1% sodium azide in PBS) before mixing 2 DiI-stained and DiO-stained populations together. The cells (20 μl/well) were then added to dilutions of antibody sample (B cell culture supernatant, TAP supernatant, clone supernatant, purified antibody solution) (20 μl/well) and incubated for 1 hour at 4° C. in a flow cytometry assay plate, before being washed with flow cytometry buffer. 10 μl/well of Alexafluor647-conjugated goat anti-species IgG Fc-specific F(ab′)2 fragment (Jackson ImmunoResearch), diluted 1:2500 in flow cytometry buffer, was added and incubated at 4° C. for 30 minutes, followed by washing with wash buffer. The fluorescence intensity was then measured on an iQue screener PLUS.
(§2) Binding was quantified as fold change in fluorescence intensity geomean over background assessed by flow cytometry.

[2] = biological target: T2, human CD1c expressed on HEK-293 cells (human, UniProt P29017 18-333; P61769 21-119); test: flow cytometry, HEK-293 cells, 31.6 µg/ml antibody
T2 construct: also called HEK - CD1c
Method: (§3) Binding to proteins expressed on HEK, C1R and MOLT4 cell lines was assessed. […] The C1R-CD1a, C1R-empty vector and MOLT4 cell lines were washed in 1×PBS on the day required. All cell lines were counted and resuspended in 1×PBS and then stained for 30 minutes at 37° C. using the DiI or DiO cellular stains (Invitrogen). Cells were washed with flow cytometry buffer (1% bovine serum albumin, 2 mM EDTA and 0.1% sodium azide in PBS) before mixing 2 DiI-stained and DiO-stained populations together. The cells (20 μl/well) were then added to dilutions of antibody sample (B cell culture supernatant, TAP supernatant, clone supernatant, purified antibody solution) (20 μl/well) and incubated for 1 hour at 4° C. in a flow cytometry assay plate, before being washed with flow cytometry buffer. 10 μl/well of Alexafluor647-conjugated goat anti-species IgG Fc-specific F(ab′)2 fragment (Jackson ImmunoResearch), diluted 1:2500 in flow cytometry buffer, was added and incubated at 4° C. for 30 minutes, followed by washing with wash buffer. The fluorescence intensity was then measured on an iQue screener PLUS.
(§4) HEK-293 cells were transiently transfected with human CD1a, CD1b, CD1c or CD1d and co-transfected with human β2M.

[3] = biological target: T3, human CD1b expressed on HEK-293 cells (human, UniProt P29016 18-333; P61769 21-119); test: flow cytometry, HEK-293 cells, 31.6 µg/ml antibody
T3 construct: also called HEK - CD1b
Method: as §3, §4

[4] = biological target: T1, human CD1a expressed on cells; test: flow cytometry, HEK-293 cells, 31.6 µg/ml antibody
Method: as §3, §4

[5] = biological target: T4, human CD1d expressed on HEK-293 cells (human, UniProt P15813 20-335; P61769 21-119); test: flow cytometry, HEK-293 cells, 31.6 µg/ml antibody
T4 construct: also called HEK - CD1d
Method: as §3, §4

[6] = biological target: T5, chimeric CD1a pool B protein [human CD1a lipid binding domain, mouse CD1d Ig domain] (human; mouse, UniProt P06126 18-201; P11609 205-297, limits assumed); test: ELISA, 0.1 µg/ml antibody
T5 sequence (P06126 other isoform, or with tags, fused parts or gaps mutant limits assumed): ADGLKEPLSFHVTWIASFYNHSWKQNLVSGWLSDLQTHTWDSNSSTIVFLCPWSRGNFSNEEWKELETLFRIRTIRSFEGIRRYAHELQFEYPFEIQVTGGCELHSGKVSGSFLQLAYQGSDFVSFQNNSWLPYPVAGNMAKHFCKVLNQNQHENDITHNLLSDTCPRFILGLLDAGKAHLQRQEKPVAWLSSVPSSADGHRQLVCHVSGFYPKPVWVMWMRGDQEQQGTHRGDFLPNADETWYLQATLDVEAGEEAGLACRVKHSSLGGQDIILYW
Method: (§5) CD1a-specific antibodies were identified by ELISA. […] 20 μl/well of peroxidase-conjugated goat anti-species IgG Fc-specific F(ab′)2 fragment (Jackson ImmunoResearch), diluted 1:5000 in block buffer was added and incubated at room temperature for 1 hour, followed by washing with wash buffer.
(§6) The antibodies were titrated through a dilution series and compared to a control rabbit IgG antibody. […] Data shown for purified antibodies.

[7] = biological target: T6, human CD1a protein (pool B) (human, UniProt P06126 18-295, limits assumed); test: ELISA, 31.6 µg/ml antibody
T6 construct: Recombinant protein of the ELISA (coated) and the Biacore T200 titration; whole entry named; also called human CD1a pool B; full length CD1a
T6 sequence (P06126 18-295 limits assumed): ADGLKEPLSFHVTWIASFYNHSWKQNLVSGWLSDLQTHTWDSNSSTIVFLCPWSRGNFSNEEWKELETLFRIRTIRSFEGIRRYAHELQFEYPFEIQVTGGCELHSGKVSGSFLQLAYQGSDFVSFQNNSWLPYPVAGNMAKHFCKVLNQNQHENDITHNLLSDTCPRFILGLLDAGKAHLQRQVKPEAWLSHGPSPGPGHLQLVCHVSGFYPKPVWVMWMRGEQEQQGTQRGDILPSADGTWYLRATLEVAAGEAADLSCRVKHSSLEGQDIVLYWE
Method: as §5
(§7) The antibodies were titrated through a dilution series and compared to a control rabbit IgG antibody.

[8] = biological target: T2, human CD1c expressed on HEK-293 cells; test: flow cytometry, HEK-293 cells, 0.1 µg/ml antibody
Method: as §3, §4

[9] = biological target: T3, human CD1b expressed on HEK-293 cells; test: flow cytometry, HEK-293 cells, 0.1 µg/ml antibody
Method: as §3, §4

[10] = biological target: T1, human CD1a expressed on cells; test: flow cytometry, HEK-293 cells, 0.1 µg/ml antibody
Method: as §3, §4

[11] = biological target: T4, human CD1d expressed on HEK-293 cells; test: flow cytometry, HEK-293 cells, 0.1 µg/ml antibody
Method: as §3, §4

[12] = biological target: T5, chimeric CD1a pool B protein [human …; test: ELISA, 10 µg/ml antibody
Method: as §5, §6

[13] = biological target: Chinese variant CD1a protein (human) (UniProt P06126); test: ELISA, 0.01 µg/ml antibody
Sequence of Chinese variant CD1a protein (human) (P06126 18-295, change not shown): as the sequence (P06126 18-295 limits assumed) above

[14] = biological target: T6, human CD1a protein (pool B); test: ELISA, 10 µg/ml antibody
Method: as §5, §7

[15] = biological target: T1, human CD1a expressed on cells; test: flow cytometry, MOLT4 cells, 31.6 µg/ml antibody
Method: as §1, §2

[16] = biological target: T1, human CD1a expressed on cells; test: flow cytometry, MOLT4 cells, 10 µg/ml antibody
Method: as §1, §2

[17] = biological target: T6, human CD1a protein (pool B); test: ELISA, 0.0316 µg/ml antibody
Method: as §5, §7

[18] = biological target: T1, human CD1a expressed on cells; test: flow cytometry, C1R cells, 0.1 µg/ml antibody
Method: as §3, §2

[19] = biological target: T2, human CD1c expressed on HEK-293 cells; test: flow cytometry, HEK-293 cells, 0.0316 µg/ml antibody
Method: as §3, §4

[20] = biological target: T3, human CD1b expressed on HEK-293 cells; test: as above
Method: as §3, §4

[21] = biological target: T1, human CD1a expressed on cells; test: as above
Method: as §3, §4

[22] = biological target: T4, human CD1d expressed on HEK-293 cells; test: as above
Method: as §3, §4

[23] = biological target: T5, chimeric CD1a pool B protein [human …; test: ELISA, 0.0316 µg/ml antibody
Method: as §5, §6

[24] = biological target: T1, human CD1a expressed on cells; test: flow cytometry, C1R cells, 3.16 µg/ml antibody
Method: as §3, §2

[25] = biological target: T6, human CD1a protein (pool B); test: ELISA, 0.1 µg/ml antibody
Method: as §5, §7

[26] = biological target: Cynomolgus monkey CD1a expressed on HEK-293 cells (Cynomolgus monkey, UniProt A0A2K5VQ68 17-326); test: flow cytometry, HEK-293 cells, 1 µg/ml antibody
Sequence of Cynomolgus monkey CD1a expressed on HEK-293 cells (A0A2K5VQ68 entry or part of it): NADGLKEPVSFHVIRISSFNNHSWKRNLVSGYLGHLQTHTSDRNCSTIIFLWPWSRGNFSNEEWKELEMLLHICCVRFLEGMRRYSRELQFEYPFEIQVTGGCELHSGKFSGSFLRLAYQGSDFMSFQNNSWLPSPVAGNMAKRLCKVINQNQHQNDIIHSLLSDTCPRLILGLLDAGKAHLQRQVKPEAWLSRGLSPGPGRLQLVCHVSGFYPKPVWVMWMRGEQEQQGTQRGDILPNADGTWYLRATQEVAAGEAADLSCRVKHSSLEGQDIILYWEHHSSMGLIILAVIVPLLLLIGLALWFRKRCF
Method: as §3, §2

[27] = biological target: T1, human CD1a expressed on cells; test: flow cytometry, C1R cells, 10 µg/ml antibody
Method: as §3, §2

B1: 116 (VR12117) (antibody, V domains shown)
VH: QSVEESGGRLVTPGTPLTLTCTVSGFSLSNYAMSWVRQAPGKGLEWIGIIYTTGFTYYASWVKGRFTISKTSTTVDLKITSPTTEDTATYFCARGLATYVSPPTRLDLWGQGTLVTVSS
VL: AQVLTQTPSPVSAAVGGTVTINCQASQSIYNSKNLAWYQQKPGQPPKLLIYSASTLASGVPSRFKGSGSGTQFTLTISDLECDDAATYYCQGEFSCSSVDCATFGGGTEVVVK
notes: also called OX116
Fluorescence Intensity Geomean (normalized to background) [1]: 29.6 fold over background | Fluorescence Intensity Geomean (normalized to background) [2]: 1 fold over background | Fluorescence Intensity Geomean (normalized to background) [3]: 1 fold over background | Fluorescence Intensity Geomean (normalized to background) [4]: 5.6 fold over background | Fluorescence Intensity Geomean (normalized to background) [5]: 1 fold over background | Optical Density (OD) [6]: 1.25 OD | Optical Density (OD) [7]: 1.16 OD | Fluorescence Intensity Geomean (normalized to background) [8]: 1 fold over background | Fluorescence Intensity Geomean (normalized to background) [9]: 1 fold over background | Fluorescence Intensity Geomean (normalized to background) [10]: 26.7 fold over background | Fluorescence Intensity Geomean (normalized to background) [11]: 1.1 fold over background | Optical Density (OD) [12]: 1.4 OD | Optical Density (OD) [13]: 1.47 OD | Optical Density (OD) [14]: 1.18 OD | Fluorescence Intensity Geomean (normalized to background) [15]: 5.6 fold over background | Fluorescence Intensity Geomean (normalized to background) [16]: 11.7 fold over background | Optical Density (OD) [17]: 0.95 OD | Fluorescence Intensity Geomean (normalized to background) [18]: 27 fold over background | Fluorescence Intensity Geomean (normalized to background) [19]: 1 fold over background | Fluorescence Intensity Geomean (normalized to background) [20]: 1 fold over background | Fluorescence Intensity Geomean (normalized to background) [21]: 15.7 fold over background | Fluorescence Intensity Geomean (normalized to background) [22]: 1 fold over background | Optical Density (OD) [23]: 1.13 OD | Fluorescence Intensity Geomean (normalized to background) [24]: 24 fold over background | Optical Density (OD) [25]: 1.07 OD | Fluorescence Intensity Geomean (normalized to background) [26]: 0.8 fold over background | Fluorescence Intensity Geomean (normalized to background) [27]: 16.9 fold over background
